Data on eight substances can be found in the supplement of paper PMC5998384.

Data set [1] has as its system HeLa Kyoto. Put plainly: solubility in G1/S (NP-40 vs SDS abundance) (log2 ratio); higher = more soluble. The following applies: cell cycle stage: G1/S.
The subject of data set [2] is HeLa Kyoto. Put plainly: melting temperature (median over replicates), in situ; higher = more thermally stable.
Data set [3] concerns HeLa Kyoto. Put plainly: solubility change mitosis vs G1/S (difference of NP-40 vs SDS log2 ratios) (log2 ratio difference); higher = more soluble in mitosis.
The test system of data set [4] is HeLa Kyoto. Put plainly: thermal stability score vs G1/S (z-score of summed log2 fold changes over temperatures); higher = more thermally stable than in G1/S.
Setting [5] is: cell cycle stage: early G1 (4.5 h after nocodazole release).
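Throughout, for melting temperature (median over replicates), in situ: HeLa Kyoto cells synchronized by double thymidine or nocodazole block, proteins quantified by TMT10plex mass spectrometry, three independent biological replicates.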
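Throughout, for solubility change mitosis vs G1/S (difference of NP-40 vs SDS log2 ratios): synchronized HeLa Kyoto cells (double thymidine block for G1/S, nocodazole release for mitosis), protein amounts in NP-40 versus SDS lysates quantified by mass spectrometry, three biological replicates.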
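Throughout, for solubility in G1/S (NP-40 vs SDS abundance): HeLa Kyoto cells arrested at G1/S by double thymidine block, proteins quantified by TMT10plex mass spectrometry in mild NP-40 versus SDS extracts, three biological replicates.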
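Throughout, for thermal stability score vs G1/S (z-score of summed log2 fold changes over temperatures): synchronized HeLa Kyoto cells, proteins quantified by TMT10plex mass spectrometry, three biological replicates, mitosis taken 0.5 h after nocodazole release, G1/S directly after double thymidine block.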

Chain of PNO1 (chain, as listed by the source): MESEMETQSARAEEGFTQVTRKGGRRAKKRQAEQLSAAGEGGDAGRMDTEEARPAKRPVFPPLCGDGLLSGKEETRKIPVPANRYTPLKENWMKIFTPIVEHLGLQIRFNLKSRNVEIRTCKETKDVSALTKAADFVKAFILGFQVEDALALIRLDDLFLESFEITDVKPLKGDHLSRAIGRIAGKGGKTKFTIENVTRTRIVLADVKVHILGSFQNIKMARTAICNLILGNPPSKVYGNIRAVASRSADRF

Consider PNO1, for which the “solubility in G1/S (log2)” value in data set [1] is -0.779. Besides, the results for the melting temperature in data set [2] (cell cycle stage: G1/S) and in data set [2] (cell cycle stage: mitosis) were 50.3 °C and 50 °C, respectively. In data set [3], the “solubility change mitosis (log2)” value is 0.449. For the same substance, the thermal stability score in data set [4] (setting [5]) worked out at 0.178; in data set [4] (cell cycle stage: mitosis) it was 0.628.

In the case of “MADAFGDELFSVFEGDSTTAAGTKKDKEKDKGKWKGPPGSADKAGKRFDGKLQSESTNNGKNKRDVDFEGTDEPIFGKKPRIEESITEDLSLADLMPRVKVQSVETVEGCTHEVALPAEEDYLPLKPRVGKAAKEYPFILDAFQREAIQCVDNNQSVLVSAHTSAGKTVCAEYAIALALREKQRVIFTSPIKALSNQKYREMYEEFQDVGLMTGDVTINPTASCLVMTTEILRSMLYRGSEVMREVAWVIFDEIHYMRDSERGVVWEETIILLPDNVHYVFLSATIPNARQFAEWICHLHKQPCHVIYTDYRPTPLQHYIFPAGGDGLHLVVDENGDFREDNFNTAMQVLRDAGDLAKGDQKGRKGGTKGPSNVFKIVKMIMERNFQPVIIFSFSKKDCEAYALQMTKLDFNTDEEKKMVEEVFSNAIDCLSDEDKKLPQVEHVLPLLKRGIGIHHGGLLPILKETIEILFSEGLIKALFATETFAMGINMPARTVLFTNARKFDGKDFRWISSGEYIQMSGRAGRRGMDDRGIVILMVDEKMSPTIGKQLLKGSADPLNSAFHLTYNMVLNLLRVEEINPEYMLEKSFYQFQHYRAIPGVVEKVKNSEEQYNKIVIPNEESVVIYYKIRQQLAKLGKEIEEYIHKPKYCLPFLQPGRLVKVKNEGDDFGWGVVVNFSKKSNVKPNSGELDPLYVVEVLLRCSKESLKNSATEAAKPAKPDEKGEMQVVPVLVHLLSAISSVRLYIPKDLRPVDNRQSVLKSIQEVQKRFPDGIPLLDPIDDMGIQDQGLKKVIQKVEAFEHRMYSHPLHNDPNLETVYTLCEKKAQIAIDIKSAKRELKKARTVLQMDELKCRKRVLRRLGFATSSDVIEMKGRVACEISSADELLLTEMMFNGLFNDLSAEQATALLSCFVFQENSSEMPKLTEQLAGPLRQMQECAKRIAKVSAEAKLEIDEETYLSSFKPHLMDVVYTWATGATFAHICKMTDVFEGSIIRCMRRLEELLRQMCQAAKAIGNTELENKFAEGITKIKRDIVFAASLYL [SKIV2L2]”, the “solubility in G1/S (log2)” value in data set [1] is -0.515. In addition, the melting temperature in data set [2] (cell cycle stage: G1/S) came to 51.3 °C; in data set [2] (cell cycle stage: mitosis) it was 51.2 °C. Also, the “solubility change mitosis (log2)” value in data set [3] stood at 0.119. Also, the thermal stability score in data set [4] (setting [5]) was 0.414; in data set [4] (cell cycle stage: mitosis), -1.19.

Consider “MAANMYRVGDYVYFENSSSNPYLVRRIEELNKTANGNVEAKVVCLFRRRDISSSLNSLADSNAREFEEESKQPGVSEQQRHQLKHRELFLSRQFESLPATHIRGKCSVTLLNETDILSQYLEKEDCFFYSLVFDPVQKTLLADQGEIRVGCKYQAEIPDRLVEGESDNRNQQKMEMKVWDPDNPLTDRQIDQFLVVARAVGTFARALDCSSSIRQPSLHMSAAAASRDITLFHAMDTLQRNGYDLAKAMSTLVPQGGPVLCRDEMEEWSASEAMLFEEALEKYGKDFNDIRQDFLPWKSLASIVQFYYMWKTTDRYIQQKRLKAAEADSKLKQVYIPTYTKPNPNQIISVGSKPGMNGAGFQKGLTCESCHTTQSAQWYAWGPPNMQCRLCASCWIYWKKYGGLKTPTQLEGATRGTTEPHSRGHLSRPEAQSLSPYTTSANRAKLLAKNRQTFLLQTTKLTRLARRMCRDLLQPRRAARRPYAPINANAIKAECSIRLPKAAKTPLKIHPLVRLPLATIVKDLVAQAPLKPKTPRGTKTPINRNQLSQNRGLGGIMVKRAYETMAGAGVPFSANGRPLASGIRSSSQPAAKRQKLNPADAPNPVVFVATKDTRALRKALTHLEMRRAARRPNLPLKVKPTLIAVRPPVPLPAPSHPASTNEPIVLED [MTA2]”, for which, in data set [1], the “solubility in G1/S (log2)” value was -0.0629. In addition, the melting temperature is 48.4 °C in data set [2] (cell cycle stage: G1/S) and 49.5 °C in data set [2] (cell cycle stage: mitosis). Further, the “solubility change mitosis (log2)” value in data set [3] was -0.00514. Moreover, the thermal stability score is 0.686 in data set [4] (setting [5]) and 5.69 in data set [4] (cell cycle stage: mitosis).

Regarding “MADQLYLENIDEFVTDQNKIVTYKWLSYTLGVHVNQAKQMLYDYVERKRKENSGAQLHVTYLVSGSLIQNGHSCHKVAVVREDKLEAVKSKLAVTASIHVYSIQKAMLKDSGPLFNTDYDILKSNLQNCSKFSAIQCAAAVPRAPAESSSSSKKFEQSHLHMSSETQANNELTTNGHGPPASKQVSQQPKGIMGMFASKAAAKTQETNKETKTEAKEVTNASAAGNKAPGKGNMMSNFFGKAAMNKFKVNLDSEQAVKEEKIVEQPTVSVTEPKLATPAGLKKSSKKAEPVKVLQKEKKRGKRVALSDDETKETENMRKKRRRIKLPESDSSEDEVFPDSPGAYEAESPSPPPPPSPPLEPVPKTEPEPPSVKSSSGENKRKRKRVLKSKTYLDGEGCIVTEKVYESESCTDSEEELNMKTSSVHRPPAMTVKKEPREERKGPKKGTAALGKANRQVSITGFFQRK [POLD3]”, the “solubility in G1/S (log2)” value in data set [1] amounted to 0.0553. Also, the values for the melting temperature in data set [2] (cell cycle stage: G1/S) and in data set [2] (cell cycle stage: mitosis) were 47 °C and 48.1 °C, respectively. In data set [3], the “solubility change mitosis (log2)” value is -0.0027. For the same substance, the thermal stability score worked out at 0.776 in data set [4] (setting [5]) and 2.8 in data set [4] (cell cycle stage: mitosis).

For the substance “MDLGAITKYSALHAKPNGLILQYGTAGFRTKAEHLDHVMFRMGLLAVLRSKQTKSTIGVMVTASHNPEEDNGVKLVDPLGEMLAPSWEEHATCLANAEEQDMQRVLIDISEKEAVNLQQDAFVVIGRDTRPSSEKLSQSVIDGVTVLGGQFHDYGLLTTPQLHYMVYCRNTGGRYGKATIEGYYQKLSKAFVELTKQASCSGDEYRSLKVDCANGIGALKLREMEHYFSQGLSVQLFNDGSKGKLNHLCGADFVKSHQKPPQGMEIKSNERCCSFDGDADRIVYYYHDADGHFHLIDGDKIATLISSFLKELLVEIGESLNIGVVQTAYANGSSTRYLEEVMKVPVYCTKTGVKHLHHKAQEFDIGVYFEANGHGTALFSTAVEMKIKQSAEQLEDKKRKAAKMLENIIDLFNQAAGDAISDMLVIEAILALKGLTVQQWDALYTDLPNRQLKVQVADRRVISTTDAERQAVTPPGLQEAINDLVKKYKLSRAFVRPSGTEDVVRVYAEADSQESADHLAHEVSLAVFQLAGGIGERPQPGF [PGM3]”, the “solubility in G1/S (log2)” value in data set [1] was 0.186. Also, the melting temperature in data set [2] (cell cycle stage: G1/S) amounted to 51.4 °C; in data set [2] (cell cycle stage: mitosis), 51.2 °C. The “solubility change mitosis (log2)” value in data set [3] was -0.0835. The thermal stability score in data set [4] (setting [5]) was -0.282; in data set [4] (cell cycle stage: mitosis), -0.735.

As to “MAPRLCSISVTARRLLGGPGPRAGDVASAAAARFYSKDNEGSWFRSLFVHKVDPRKDAHSTLLSKKETSNLYKIQFHNVKPEYLDAYNSLTEAVLPKLHLDEDYPCSLVGNWNTWYGEQDQAVHLWRFSGGYPALMDCMNKLKNNKEYLEFRRERSQMLLSRRNQLLLEFSFWNEPQPRMGPNIYELRTYKLKPGTMIEWGNNWARAIKYRQENQEAVGGFFSQIGELYVVHHLWAYKDLQSREETRNAAWRKRGWDENVYYTVPLVRHMESRIMIPLKISPLQ [NIPSNAP1]”, the “solubility in G1/S (log2)” value in data set [1] was determined as 0.0548. Besides, the melting temperature worked out at 53.9 °C in data set [2] (cell cycle stage: G1/S) and 54.3 °C in data set [2] (cell cycle stage: mitosis). Moreover, the “solubility change mitosis (log2)” value in data set [3] is -0.0766. The thermal stability score in data set [4] (setting [5]) was -0.403; in data set [4] (cell cycle stage: mitosis), -2.28.

Consider “MPNIKIFSGSSHQDLSQKIADRLGLELGKVVTKKFSNQETCVEIGESVRGEDVYIVQSGCGEINDNLMELLIMINACKIASASRVTAVIPCFPYARQDKKDKSRAPISAKLVANMLSVAGADHIITMDLHASQIQGFFDIPVDNLYAEPAVLKWIRENISEWRNCTIVSPDAGGAKRVTSIADRLNVDFALIHKERKKANEVDRMVLVGDVKDRVAILVDDMADTCGTICHAADKLLSAGATRVYAILTHGIFSGPAISRINNACFEAVVVTNTIPQEDKMKHCSKIQVIDISMILAEAIRRTHNGESVSYLFSHVPL [PRPS1]”, for which, in data set [1], the “solubility in G1/S (log2)” value was -0.185. The results for the melting temperature in data set [2] (cell cycle stage: G1/S) and in data set [2] (cell cycle stage: mitosis) were 57.3 °C and 57.4 °C, respectively. Also, in data set [3], the “solubility change mitosis (log2)” value is -0.136. Also, the thermal stability score is 1.55 in data set [4] (setting [5]) and 0.473 in data set [4] (cell cycle stage: mitosis).

With “MASRGATRPNGPNTGNKICQFKLVLLGESAVGKSSLVLRFVKGQFHEFQESTIGAAFLTQTVCLDDTTVKFEIWDTAGQERYHSLAPMYYRGAQAAIVVYDITNEESFARAKNWVKELQRQASPNIVIALSGNKADLANKRAVDFQEAQSYADDNSLLFMETSAKTSMNVNEIFMAIAKKLPKNEPQNPGANSARGRGVDLTEPTQPTRNQCCSN [RAB5A]”, the “solubility in G1/S (log2)” value in data set [1] was found to be 0.00572. Moreover, the melting temperature is 57.3 °C in data set [2] (cell cycle stage: G1/S) and 56.4 °C in data set [2] (cell cycle stage: mitosis). The “solubility change mitosis (log2)” value in data set [3] came out at 0.0351. The thermal stability score in data set [4] (setting [5]) was -1.4; in data set [4] (cell cycle stage: mitosis), -3.38.
